Assay results reported in publication PMC11746154.

B1: Gal4AD-Spo11 [S. cerevisiae] / LexA-Rec102 [S. cerevisiae] (parent)
chain 1: MALEGLRKKYKTRQELVKALTPKRRSIHLNSNGHSNGTPCSNADVLAHIKHFLSLAANSLEQHQQPISIVFQNKKKKGDTSSPDIHTTLDFPLNGPHLCTHQFKLKRCAILLNLLKVVMEKLPLGKNTTVRDIFYSNVELFQRQANVVQWLDVIRFNFKLSPRKSLNIIPAQKGLVYSPFPIDIYDNILTCENEPKMQKQTIFPGKPCLIPFFQDDAVIKLGTTSMCNIVIVEKEAVFTKLVNNYHKLSTNTMLITGKGFPDFLTRLFLKKLEQYCSKLISDCSIFTDADPYGISIALNYTHSNERNAYICTMANYKGIRITQVLAQNNEVHNKSIQLLSLNQRDYSLAKNLIASLTANSWDIATSPLKNVIIECQREIFFQKKAEMNEIDARIFEYK
chain 2: MARDITFLTVFLESCGAVNNDEAGKLLSAWTSTVRIEGPESTDSNSLYIPLLPPGMLKIKLNFKMNDRLVTEEQELFTKLREIVGSSIRFWEEQLFYQVQDVSTIENHVILSLKCTILTDAQISTFISKPRELHTHAKGYPEIYYLSELSTTVNFFSKEGNYVEISQVIPHFNEYFSSLIVSQLEFEYPMVFSMISRLRLKWQQSSLAPISYALTSNSVLLPIMLNMIAQDKSSTTAYQILCRRRGPPIQNFQIFSLPAVTYNK

Variants of: B1
Assay: Y2H quantitative β-galactosidase assay
Conditions: with LexA-Rec102 [S. cerevisiae]; parent: 1; read off a plot

response (normalized β-gal units) | Variant
1.2 | chain 1 MALEGLRKKYKTRQELVKALTPKRRSIHLNSNGHSNGTPCSNADVLAHIKHFLSLAANSLEQHQQPISIVFQNKKKKGDTSSPDIHTTLDFPLNGPHLCTHAFKLKRCAILLNLLKVVMEKLPLGKNTTVRDIFYSNVELFQRQANVVQWLDVIRFNFKLSPRKSLNIIPAQKGLVYSPFPIDIYDNILTCENEPKMQKQTIFPGKPCLIPFFQDDAVIKLGTTSMCNIVIVEKEAVFTKLVNNYHKLSTNTMLITGKGFPDFLTRLFLKKLEQYCSKLISDCSIFTDADPYGISIALNYTHSNERNAYICTMANYKGIRITQVLAQNNEVHNKSIQLLSLNQRDYSLAKNLIASLTANSWDIATSPLKNVIIECQREIFFQKKAEMNEIDARIFEYK [chain 1 Q102A]
0.5 | chain 1 MALEGLRKKYKTRQELAKALTPKRRSIHLNSNGHSNGTPCSNADVLAHIKHFLSLAANSLEQHQQPISIVFQNKKKKGDTSSPDIHTTLDFPLNGPHLCTHQFKLKRCAILLNLLKVVMEKLPLGKNTTVRDIFYSNVELFQRQANVVQWLDVIRFNFKLSPRKSLNIIPAQKGLVYSPFPIDIYDNILTCENEPKMQKQTIFPGKPCLIPFFQDDAVIKLGTTSMCNIVIVEKEAVFTKLVNNYHKLSTNTMLITGKGFPDFLTRLFLKKLEQYCSKLISDCSIFTDADPYGISIALNYTHSNERNAYICTMANYKGIRITQVLAQNNEVHNKSIQLLSLNQRDYSLAKNLIASLTANSWDIATSPLKNVIIECQREIFFQKKAEMNEIDARIFEYK [chain 1 V17A]

More lines, now with the values behind:

Variant | response (normalized β-gal units)
chain 1 MALEGLRKKYKTRQELVKALTPKRRSIHLNSNGHSNGTPCSNADVLAHIKHFLSLAANSLEQHQQPISIVFQNKKKKGDTSSPDIHTTLDFPLNGPHLCTHQFKLKRCAILANLLKVVMEKLPLGKNTTVRDIFYSNVELFQRQANVVQWLDVIRFNFKLSPRKSLNIIPAQKGLVYSPFPIDIYDNILTCENEPKMQKQTIFPGKPCLIPFFQDDAVIKLGTTSMCNIVIVEKEAVFTKLVNNYHKLSTNTMLITGKGFPDFLTRLFLKKLEQYCSKLISDCSIFTDADPYGISIALNYTHSNERNAYICTMANYKGIRITQVLAQNNEVHNKSIQLLSLNQRDYSLAKNLIASLTANSWDIATSPLKNVIIECQREIFFQKKAEMNEIDARIFEYK [chain 1 L112A] | 0.03
chain 1 MALEGLRKKYKTRQELVKALTPKRRSIHLNSNGHSNGTPCSNADVLAHIKHFLSLAANSLEQHQQPISIVFQNKKKKGDTSSPDIHTTLDAPLNGPHLCTHQFKLKRCAILLNLLKVVMEKLPLGKNTTVRDIFYSNVELFQRQANVVQWLDVIRFNFKLSPRKSLNIIPAQKGLVYSPFPIDIYDNILTCENEPKMQKQTIFPGKPCLIPFFQDDAVIKLGTTSMCNIVIVEKEAVFTKLVNNYHKLSTNTMLITGKGFPDFLTRLFLKKLEQYCSKLISDCSIFTDADPYGISIALNYTHSNERNAYICTMANYKGIRITQVLAQNNEVHNKSIQLLSLNQRDYSLAKNLIASLTANSWDIATSPLKNVIIECQREIFFQKKAEMNEIDARIFEYK [chain 1 F91A] | 0.3
chain 1 MALEGLRKKYKTRQELVKAATPKRRSIHLNSNGHSNGTPCSNADVLAHIKHFLSLAANSLEQHQQPISIVFQNKKKKGDTSSPDIHTTLDFPLNGPHLCTHQFKLKRCAILLNLLKVVMEKLPLGKNTTVRDIFYSNVELFQRQANVVQWLDVIRFNFKLSPRKSLNIIPAQKGLVYSPFPIDIYDNILTCENEPKMQKQTIFPGKPCLIPFFQDDAVIKLGTTSMCNIVIVEKEAVFTKLVNNYHKLSTNTMLITGKGFPDFLTRLFLKKLEQYCSKLISDCSIFTDADPYGISIALNYTHSNERNAYICTMANYKGIRITQVLAQNNEVHNKSIQLLSLNQRDYSLAKNLIASLTANSWDIATSPLKNVIIECQREIFFQKKAEMNEIDARIFEYK [chain 1 L20A] | 0.35
chain 1 MALEGLRKKYKTRQELVKALTPKRRSIHLNSNGHSNGTPCSNADVLAHIKHFLSLAANSLEQHQQPISIVFQNKKKKGDTSSPDIHTTLDFPLAGPHLCTHQFKLKRCAILLNLLKVVMEKLPLGKNTTVRDIFYSNVELFQRQANVVQWLDVIRFNFKLSPRKSLNIIPAQKGLVYSPFPIDIYDNILTCENEPKMQKQTIFPGKPCLIPFFQDDAVIKLGTTSMCNIVIVEKEAVFTKLVNNYHKLSTNTMLITGKGFPDFLTRLFLKKLEQYCSKLISDCSIFTDADPYGISIALNYTHSNERNAYICTMANYKGIRITQVLAQNNEVHNKSIQLLSLNQRDYSLAKNLIASLTANSWDIATSPLKNVIIECQREIFFQKKAEMNEIDARIFEYK [chain 1 N94A] | 0.07

Same assay, conditions: with Gal4AD-Spo11 [S. cerevisiae]; parent: 1; read off a plot

response (normalized β-gal units) | Variant
2 | chain 2 MARDITFLTVFLESCGAVNNDEAGKLLSAWTSTVRIEGPESTDSNSLYIPLLPPGMLKIKLNFKMNDRLVTEEQELFTKLREIVGSSIRFWEEQLFYQVQDVSTIENHVILSLKCTILTDAQISTFISKPRELHTHAKGYPEIYYLSELSTTVNFFSKEGNYVEISQVIPHFNEYFSSLIVSQLEFEYPMVFSMISRLRLKWQQSSAAPISYALTSNSVLLPIMLNMIAQDKSSTTAYQILCRRRGPPIQNFQIFSLPAVTYNK [chain 2 L207A]
0.12 | chain 2 MARDITFLTVFLESCGAVNNDEAGKLLSAWTSTVRIEGPESTDSNSLYIPLLPPGMLKIKLNFKMNDRLVTEEQELFTKLREIVGSSIRFWEEQLFYQVQDVSTIENHVILSLKCTILTDAQISTFISKPRELHTHAKGYPEIYYLSELSTTVNFFSKEGNYVEISQVIPHFNEYFSSLIVSQLEFEYPMVFSMISRLRLKWQQSSLAPISYALTSNSVLLPIMLNMIAQDKASTTAYQILCRRRGPPIQNFQIFSLPAVTYNK [chain 2 S233A]
0.02 | chain 2 MARDITFLTVFLESCGAVNNDEAGKLLSAWTSTVRIEGPESTDSNSLYIPLLPPGMLKIKLNFKMNDRLVTEEQELFTKLREIVGSSIRFWEEQLFYQVQDVSTIENHVILSLKCTILTDAQISTFISKPRELHTHAKGYPEIYYLSELSTTVNFFSKEGNYVEISQVIPHFNEYFSSLIVSQLEFEYPMVFSMISRLALKWQQSSLAPISYALTSNSVLLPIMLNMIAQDKSSTTAYQILCRRRGPPIQNFQIFSLPAVTYNK [chain 2 R199A]
